Data on one substance can be found in article PMC9472817, “Structural and functional characterisation of a stable, broad-specificity multimeric sialidase from the oral pathogen Tannerella forsythia” (Biochemical Journal, 2022).

By stoichiometry N is commonly meant the number of molecules, sites or subunits per partner or assembly.

The target in this experiment is NanH sialidase of Tannerella forsythia (wild type) (Tannerella forsythia 92A.2). Nature of the experiment: SEC-MALS; NanH at 0.5 and 3.0 mg/ml on Superdex S200 10/300 in 50 mM sodium phosphate, 200 mM NaCl pH 7.4, ~20°C; self-association. (In general: Size exclusion chromatography separates by hydrodynamic size, large species first.)

Substance “NanH sialidase of Tannerella forsythia (wild type) (enzyme)” yielded a percent of the protein as dimer of 90% and a stoichiometry N of 2.
